In patent US6511816B1, “DNA gyrase-inhibiting proteins” (priority 1996, dated 2003):

What was measured:
[1] = biological target: Escherichia coli DNA gyrase (subunit A and subunit B) (Escherichia coli) (UniProt P0AES4); test: cell-based or functional assay
E. coli GI724 strain = test: Growth of antisense RNA-expressing strain with tryptophan induction; assay type: cell-based, Escherichia coli; settings: for turbidity OD600 / number of living cells: tryptophan added
Protocol: An antisense expression vector was prepared by inserting a fragment containing the translation region of dgi gene (a fragment corresponding to the 255th-728th bases of Sequence ID NO:6) into the downstream of tryptophan (trp) promoter of vector plasmid pLEX (available from Invitrogen Co.).
The vector was introduced into E. coli GI724 strain. The antisense RNA-expressing strain thus obtained was cultured under the condition of with or without adding tryptophan, and the change with the lapse of time in the number of living cells and turbidity (OD600) was measured. When expression induction by adding tryptophan was not carried out, the number of living cells and turbidity after 24 hours were increased up to 1×10^9 cfu/ml and 1.0, respectively. […] It has been reported that such abnormality in morphology was also observed when E. coli was treated with a new quinolone gyrase inhibitor (Takeshi Nishino et al., Chemotherapy, vol. 41(s-5), pp. 50-66, 1993). From the above result, it is considered that in E. coli wherein expression of dgi antisense RNA is induced, expression of dgi gene is repressed and the normal growth of bacteria is inhibited. In other words, a medical agent which inhibits the expression of dgi gene is useful as an antimicrobial agent.

[2] = biological target: Escherichia coli DNA gyrase (subunit A and subunit B) (Escherichia coli, UniProt P0AES4+P0AES6)
Sequence of Escherichia coli DNA gyrase (subunit A and subunit B) (P0AES4 whole entry, one chain of several): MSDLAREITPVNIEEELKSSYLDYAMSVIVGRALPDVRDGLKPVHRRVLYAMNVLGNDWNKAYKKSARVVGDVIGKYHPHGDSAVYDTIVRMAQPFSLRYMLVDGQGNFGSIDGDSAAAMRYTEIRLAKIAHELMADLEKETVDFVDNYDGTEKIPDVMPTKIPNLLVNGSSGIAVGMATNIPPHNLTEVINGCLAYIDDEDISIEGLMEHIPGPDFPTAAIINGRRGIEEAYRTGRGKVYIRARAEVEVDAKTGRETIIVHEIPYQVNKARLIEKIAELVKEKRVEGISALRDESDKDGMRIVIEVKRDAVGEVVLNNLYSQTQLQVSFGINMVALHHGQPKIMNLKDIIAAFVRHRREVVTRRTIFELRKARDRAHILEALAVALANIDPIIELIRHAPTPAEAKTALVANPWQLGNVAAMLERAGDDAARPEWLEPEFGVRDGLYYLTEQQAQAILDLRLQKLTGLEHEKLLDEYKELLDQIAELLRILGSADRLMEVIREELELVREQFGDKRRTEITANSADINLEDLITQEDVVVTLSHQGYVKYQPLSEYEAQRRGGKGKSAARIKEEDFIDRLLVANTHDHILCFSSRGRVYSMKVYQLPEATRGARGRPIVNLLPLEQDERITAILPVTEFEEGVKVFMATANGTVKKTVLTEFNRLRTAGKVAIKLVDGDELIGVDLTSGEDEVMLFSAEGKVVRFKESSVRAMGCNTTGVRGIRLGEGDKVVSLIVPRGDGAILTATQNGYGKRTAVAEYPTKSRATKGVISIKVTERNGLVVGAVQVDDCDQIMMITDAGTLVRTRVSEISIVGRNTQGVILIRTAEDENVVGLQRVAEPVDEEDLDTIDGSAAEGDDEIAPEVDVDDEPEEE
Protocol: Using the purified DGI obtained in Example 4 above, DGI activity, i.e. the inhibiting activity against DNA gyrase activity (supercoiling activity), was measured. Each 5 μl of DNA gyrase subunit A (1U) and subunit B (1U) were each added to a reaction mixture for activity measurement (20 mM Tris-HCl (pH7.5), 20 mM KCl, 4 mM MgCl2, 4 mM spermidine, 1.5 mM ATP, 1 mM DTT, 30 μg/ml t-RNA, 15 μg/ml BSA and 0.1 μg relaxed pBR322 DNA), and DGI (protein concentration 25, 12.5, 6.25, 3.13, 1.56, 0.78 or 0.39 μg/ml) was added thereto for the reaction for 1 hour at 37° C. After stopping the reaction by addition of 3 μl of proteinase K (1 mg/ml) while keeping the temperature at 37° C. for 30 minutes, the reaction mixture was subjected to electrophoresis with 0.8% agarose gel, dyed with a 0.5 μg/ml solution of ethidium bromide and photographed under radiation of the ultraviolet rays. The amount of super-coiled DNA was measured with a densitometer (Shimadzu-wavelength flying spot scanner CS-9000, available from Shimadzu Seisakusho Co.). The presence or absence of DNA gyrase-inhibiting activity was assayed by comparing the supercoiled DNA amounts obtained when DGI protein was added, with those obtained when no DGI protein was added.
0.5 μg of pBR322 DNA (the supercoiled type, available from Takara Shuzo Co.) and 1 μl of topoisomerase I (available from Takara Shuzo Co.)(6 U/μl) were added to 20 μl of a reaction liquid (35 mM Tris-HCl (pH 8.0), 72 mM KCl, 5 mM MgCl2, 5 mM DTT, 5 mM spermidine and 0.01% bovine serum albumin) and reacted for 2 hours at 37° C. to prepare relaxed pBR322 DNA. […] As for the enzyme activity, the enzyme amount necessary to convert 50% of the amount of the relaxed plasmid DNA into the supercoiled DNA was expressed as one unit (U).

[3] = system: E. coli GI724 (pCA17) strain; test: Microscopic observation of strains expressing a large amount of DGI; assay type: cell-based, Escherichia coli; settings: tryptophan-induced expression from pCA17

Sequence of Escherichia coli DNA gyrase (subunit A and subunit B) (Escherichia coli) (P0AES4 2-875 limits assumed): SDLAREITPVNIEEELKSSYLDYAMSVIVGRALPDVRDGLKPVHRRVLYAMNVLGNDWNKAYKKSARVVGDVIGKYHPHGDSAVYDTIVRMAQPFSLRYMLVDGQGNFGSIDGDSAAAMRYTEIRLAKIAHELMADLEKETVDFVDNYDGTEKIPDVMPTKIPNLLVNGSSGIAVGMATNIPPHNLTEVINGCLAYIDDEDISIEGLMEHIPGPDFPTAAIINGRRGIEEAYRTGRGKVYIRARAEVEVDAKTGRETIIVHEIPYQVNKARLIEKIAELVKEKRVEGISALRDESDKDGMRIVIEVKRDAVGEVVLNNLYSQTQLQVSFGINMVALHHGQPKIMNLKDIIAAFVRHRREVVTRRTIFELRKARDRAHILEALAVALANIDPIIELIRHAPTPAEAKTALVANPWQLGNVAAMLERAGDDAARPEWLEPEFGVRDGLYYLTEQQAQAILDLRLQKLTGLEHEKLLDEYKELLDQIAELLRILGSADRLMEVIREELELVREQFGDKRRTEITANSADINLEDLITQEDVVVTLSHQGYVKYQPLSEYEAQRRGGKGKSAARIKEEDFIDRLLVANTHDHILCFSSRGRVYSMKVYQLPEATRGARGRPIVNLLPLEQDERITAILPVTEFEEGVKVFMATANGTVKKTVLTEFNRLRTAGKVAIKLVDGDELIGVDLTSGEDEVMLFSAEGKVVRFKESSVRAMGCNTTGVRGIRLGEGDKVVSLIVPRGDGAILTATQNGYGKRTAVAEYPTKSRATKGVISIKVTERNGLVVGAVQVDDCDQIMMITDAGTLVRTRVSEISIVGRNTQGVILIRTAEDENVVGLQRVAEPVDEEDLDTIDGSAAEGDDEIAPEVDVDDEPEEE

Molecule: DNA gyrase-inhibiting protein (DGI) derived from Escherichia coli (from UniProt B2TYH1 1-157)
- supercoiling activity of DNA gyrase (relaxed pBR322 DNA, agarose gel) [1]: 8 µg/ml
- supercoiling activity of DNA gyrase (relaxed pBR322 DNA, agarose gel, densitometry) [1]: > 6 µg/ml

B1: dgi gene antisense RNA: antisense RNA expressed from pLEX carrying the dgi fragment (255th-728th bases of Sequence ID NO:6) (nucleic acid)
antisense: ATGAACTACGAGATTAAGCAGGAAGAGAAACGTACCGTTGCAGGTTTCCATCTCGTTGGCCCGTGGGAACAGACGGTAAAGAAAGGCTTTGAGCAGTTGATGATGTGGGTAGATAGCAAAAATATTGTGCCGAAGGAGTGGGTTGCTGTCTATTACGACAATCCAGATGAAACACCCGCCGAAAAATTACGCTGCGACACCGTCGTGACGGTGCCGGGTTACTTTACGCTTCCCGAAAACAGTGAGGGCGTCATTCTGACAGAAATTACAGGTGGTCAGTATGCGGTGGCGGTAGCTCGTGTAGTCGGTGATGATTTTGCTAAACCCTGGTATCAGTTCTTTAATAGTCTCTTGCAGGACAGTGCTTATGAAATGTTACCAAAGCCCTGCTTCGAGGTTTATTTGAACAATGGCGCGGAAGATGGGTACTGGGATATCGAAATGTATGTTGCGGTGCAGCCAAAACATCACTAA
modifications: antisense orientation RNA; Escherichia coli strain KL16
- morphology of bacteria (E. coli GI724 strain; antisense RNA-expressing strain): elongation of the bacteria was observed
- turbidity OD600 (E. coli GI724 strain; 8 hours after the addition): 0.4
- number of living cells (E. coli GI724 strain; 8 hours after the addition (from 4×10^7 cfu/ml)): 1×10^8 cfu/ml
- number of living cells (E. coli GI724 strain; after 24 hours): 5×10^6 cfu/ml
- turbidity OD600 (E. coli GI724 strain; after 24 hours): ~0.5

B2: DGI: about 18 kDa Escherichia coli protein inhibiting DNA gyrase supercoiling activity, Sequence ID NO:7 (protein)
chain: MNYEIKQEEKRTVAGFHLVGPWEQTVKKGFEQLMMWVDSKNIVPKEWVAVYYDNPDETPAEKLRCDTVVTVPGYFTLPENSEGVILTEITGGQYAVAVARVVGDDFAKPWYQFFNSLLQDSAYEMLPKPCFEVYLNNGAEDGYWDIEMYVAVQPKHH
modifications: Escherichia coli strain KL16
- concentration perfectly inhibiting the supercoiling activity of DNA gyrase ([2]; purified DGI isolated from Fraction No. 32 by Sephadex G-75, relaxed pBR322 DNA, subunit A 1 U, subunit B 1 U): 8 µg/mL
- concentration completely inhibiting the supercoiling activity of DNA gyrase ([2]; recombinant purified DGI of Example 4, 1 hour at 37° C., tested 25 to 0.39 μg/ml): ≥ 6 µg/mL
- conversion to supercoiled DNA at concentration lower than 6 μg/ml ([2]; recombinant purified DGI of Example 4, below 6 μg/ml): ended in an incomplete state
- morphology of strains expressing a large amount of DGI [3]: lank and elongated
